Target: thrombin (UniProt P00734;P00734 315-363;364-622)
Assay: fluorescence polarization

**Q.** GGTTGGTGTGGTTGG (structured_DNA, T3 replaced by 5-ethynyl-dU clicked to inactivated N-acyl sulfonamide 2b) [TBA(3)-2b] was tested. Which Kd did it give?
**A.** Its Kd is 395 nM.
